31 molecules from paper PMC6555819, “Comprehensive study of nuclear receptor DNA binding provides a revised framework for understanding receptor specificity” can be followed below.

The chains are these.
B1: NRC3_wobSeed34_DR1_A24C_o1 (dsDNA)
DNA 1: GCATCGAAAGGTCGAAGGTGAGTCTACCCACCCGAAGCGATTGACAGCGTAGAATGAAGG
DNA 2: CCTTCATTCTACGCTGTCAATCGCTTCGGGTGGGTAGACTCACCTTCGACCTTTCGATGC
B2: NRC3_wobSeed34_DR1_G22C_o1 (dsDNA)
DNA 1: GCATCGAAAGGTCGAAGGTGACTATACCCACCCGAAGCGATTGACAGCGTAGAATGAAGG
DNA 2: CCTTCATTCTACGCTGTCAATCGCTTCGGGTGGGTATAGTCACCTTCGACCTTTCGATGC
B3: NRC3_wobSeed3_DR0_A9G_o1 (dsDNA)
DNA 1: GCGCTCGGGGGACAAGGTCAGAGCTTTGTCCGTAGAGCGATTGACAGCGTAGAATGAAGG
DNA 2: CCTTCATTCTACGCTGTCAATCGCTCTACGGACAAAGCTCTGACCTTGTCCCCCGAGCGC
B4: NRC3_wobSeed142_DR5_G22T_o1 (dsDNA)
DNA 1: GCATACCAAGGTGATCGTGAGTTCGTTGATACTAACGCGATTGACAGCGTAGAATGAAGG
DNA 2: CCTTCATTCTACGCTGTCAATCGCGTTAGTATCAACGAACTCACGATCACCTTGGTATGC
B5: NRC3_wobSeed140_DR5_A22G_o1 (dsDNA)
DNA 1: GCAGAATGAGGTTATACGTAGGTCAGGGAAGAAAGTGCGATTGACAGCGTAGAATGAAGG
DNA 2: CCTTCATTCTACGCTGTCAATCGCACTTTCTTCCCTGACCTACGTATAACCTCATTCTGC
B6: NRC3_wobSeed21_DR0_A7T_o1 (dsDNA)
DNA 1: GCCGTCTAAGTTCAAGGTAACGTAACAGAAAGCAGCGCGATTGACAGCGTAGAATGAAGG
DNA 2: CCTTCATTCTACGCTGTCAATCGCGCTGCTTTCTGTTACGTTACCTTGAACTTAGACGGC
B7: NRC3_wobSeed13_DR0_T18G_o1 (dsDNA)
DNA 1: GCCGTCCAAGGTCAAGGGCAGTGAAAGAGACTCGAAGCGATTGACAGCGTAGAATGAAGG
DNA 2: CCTTCATTCTACGCTGTCAATCGCTTCGAGTCTCTTTCACTGCCCTTGACCTTGGACGGC
B8: NRC3_wobSeed66_DR2_C15T_o1 (dsDNA)
DNA 1: GCAATACAGGGTCATTAGGCCAGAGTAGGTACGAATGCGATTGACAGCGTAGAATGAAGG
DNA 2: CCTTCATTCTACGCTGTCAATCGCATTCGTACCTACTCTGGCCTAATGACCCTGTATTGC
B9: NRC3_wobSeed66_DR2_A17T_o1 (dsDNA)
DNA 1: GCAATACAGGGTCACTTGGCCAGAGTAGGTACGAATGCGATTGACAGCGTAGAATGAAGG
DNA 2: CCTTCATTCTACGCTGTCAATCGCATTCGTACCTACTCTGGCCAAGTGACCCTGTATTGC
B10: NRC3_wobSeed66_DR2_A27G_o1 (dsDNA)
DNA 1: GCAATACAGGGTCACTAGGCCAGAGTGGGTACGAATGCGATTGACAGCGTAGAATGAAGG
DNA 2: CCTTCATTCTACGCTGTCAATCGCATTCGTACCCACTCTGGCCTAGTGACCCTGTATTGC
B11: NRC3_wobSeed120_DR4_A14C_o1 (dsDNA)
DNA 1: GCCCGAGTAGGTTCCGAGGGGGCATTCAGTGCGAATGCGATTGACAGCGTAGAATGAAGG
DNA 2: CCTTCATTCTACGCTGTCAATCGCATTCGCACTGAATGCCCCCTCGGAACCTACTCGGGC
B12: NRC3_wobSeed120_DR4_G10A_o1 (dsDNA)
DNA 1: GCCCGAGTAAGTTACGAGGGGGCATTCAGTGCGAATGCGATTGACAGCGTAGAATGAAGG
DNA 2: CCTTCATTCTACGCTGTCAATCGCATTCGCACTGAATGCCCCCTCGTAACTTACTCGGGC
B13: NRC3_wobSeed23_DR0_A9G_o1 (dsDNA)
DNA 1: GCGGAACGGGGGCAAGTTGATAGCAGAGTTTGATGGGCGATTGACAGCGTAGAATGAAGG
DNA 2: CCTTCATTCTACGCTGTCAATCGCCCATCAAACTCTGCTATCAACTTGCCCCCGTTCCGC
B14: NRC3_wobSeed138_DR5_C7A_o1 (dsDNA)
DNA 1: GCGATAAAGGGTCAGCTAGAGGCCAGAGTATGGAAAGCGATTGACAGCGTAGAATGAAGG
DNA 2: CCTTCATTCTACGCTGTCAATCGCTTTCCATACTCTGGCCTCTAGCTGACCCTTTATCGC
B15: NRC3_wobSeed138_DR5_G9A_o1 (dsDNA)
DNA 1: GCGATACAAGGTCAGCTAGAGGCCAGAGTATGGAAAGCGATTGACAGCGTAGAATGAAGG
DNA 2: CCTTCATTCTACGCTGTCAATCGCTTTCCATACTCTGGCCTCTAGCTGACCTTGTATCGC
B16: NRC3_wobSeed138_DR5_A18T_o1 (dsDNA)
DNA 1: GCGATACAGGGTCAGCTTGAGGCCAGAGTATGGAAAGCGATTGACAGCGTAGAATGAAGG
DNA 2: CCTTCATTCTACGCTGTCAATCGCTTTCCATACTCTGGCCTCAAGCTGACCCTGTATCGC
B17: NRC3_wobSeed30_DR1_G7T_o1 (dsDNA)
DNA 1: GCACTATCAGGCCAAGGGTCACTCAAGATTAGTCCGGCGATTGACAGCGTAGAATGAAGG
DNA 2: CCTTCATTCTACGCTGTCAATCGCCGGACTAATCTTGAGTGACCCTTGGCCTGATAGTGC
B18: NRC3_wobSeed72_DR2_o1 (dsDNA)
DNA 1: GCTCGAGTAGGTTACGGGGGCATTCAGGGATGAAGAGCGATTGACAGCGTAGAATGAAGG
DNA 2: CCTTCATTCTACGCTGTCAATCGCTCTTCATCCCTGAATGCCCCCGTAACCTACTCGAGC
B19: NRC3_wobSeed72_DR2_T24C_o1 (dsDNA)
DNA 1: GCTCGAGTAGGTTACGGGGGCATCCAGGGATGAAGAGCGATTGACAGCGTAGAATGAAGG
DNA 2: CCTTCATTCTACGCTGTCAATCGCTCTTCATCCCTGGATGCCCCCGTAACCTACTCGAGC
B20: NRC3_wobSeed137_DR5_A29T_o1 (dsDNA)
DNA 1: GCATATGTAGGTTACATCCGGGTCATTCTGGCTATGGCGATTGACAGCGTAGAATGAAGG
DNA 2: CCTTCATTCTACGCTGTCAATCGCCATAGCCAGAATGACCCGGATGTAACCTACATATGC
B21: NRC3_wobSeed119_DR4_o1 (dsDNA)
DNA 1: GCGGAACGAGGGCATTCGAGTTGATAGCATGGCGATGCGATTGACAGCGTAGAATGAAGG
DNA 2: CCTTCATTCTACGCTGTCAATCGCATCGCCATGCTATCAACTCGAATGCCCTCGTTCCGC
B22: NRC3_wobSeed106_DR4_G6C_o1 (dsDNA)
DNA 1: GCCTCCAAAGGTCGGTTGAGGTGAGTATACGGATAAGCGATTGACAGCGTAGAATGAAGG
DNA 2: CCTTCATTCTACGCTGTCAATCGCTTATCCGTATACTCACCTCAACCGACCTTTGGAGGC
B23: NRC3_wobSeed104_DR4_G7A_o1 (dsDNA)
DNA 1: GCTCTTATAGATCAATAGAGGTTAAGAAAGTGCGCTGCGATTGACAGCGTAGAATGAAGG
DNA 2: CCTTCATTCTACGCTGTCAATCGCAGCGCACTTTCTTAACCTCTATTGATCTATAAGAGC
B24: NRC3_wobSeed130_DR5_C19T_o1 (dsDNA)
DNA 1: GCCTCGAAAGGTCGTGCTTAGGTGAGTATACCAAACGCGATTGACAGCGTAGAATGAAGG
DNA 2: CCTTCATTCTACGCTGTCAATCGCGTTTGGTATACTCACCTAAGCACGACCTTTCGAGGC
B25: NRC3_wobSeed130_DR5_G16C_o1 (dsDNA)
DNA 1: GCCTCGAAAGGTCGTCCTCAGGTGAGTATACCAAACGCGATTGACAGCGTAGAATGAAGG
DNA 2: CCTTCATTCTACGCTGTCAATCGCGTTTGGTATACTCACCTGAGGACGACCTTTCGAGGC
B26: NRC3_wobSeed130_DR5_A30G_o1 (dsDNA)
DNA 1: GCCTCGAAAGGTCGTGCTCAGGTGAGTATGCCAAACGCGATTGACAGCGTAGAATGAAGG
DNA 2: CCTTCATTCTACGCTGTCAATCGCGTTTGGCATACTCACCTGAGCACGACCTTTCGAGGC
B27: NRC3_wobSeed29_DR1_C13G_o1 (dsDNA)
DNA 1: GCGCTTACGGGTGAAAGGTTATAGCATGAATAGAATGCGATTGACAGCGTAGAATGAAGG
DNA 2: CCTTCATTCTACGCTGTCAATCGCATTCTATTCATGCTATAACCTTTCACCCGTAAGCGC
B28: NRC3_wobSeed58_DR2_G23C_o1 (dsDNA)
DNA 1: GCATCGAAAGGTCGTGAGGTGACTATACAGAAAGGCGCGATTGACAGCGTAGAATGAAGG
DNA 2: CCTTCATTCTACGCTGTCAATCGCGCCTTTCTGTATAGTCACCTCACGACCTTTCGATGC
B29: NRC3_wobSeed5_DR0_A22C_o1 (dsDNA)
DNA 1: GCCCTTACGGGTCAAGGTTATCGCACGGGTGGTACGGCGATTGACAGCGTAGAATGAAGG
DNA 2: CCTTCATTCTACGCTGTCAATCGCCGTACCACCCGTGCGATAACCTTGACCCGTAAGGGC
B30: NRC3_wobSeed5_DR0_T5G_o1 (dsDNA)
DNA 1: GCCCGTACGGGTCAAGGTTATAGCACGGGTGGTACGGCGATTGACAGCGTAGAATGAAGG
DNA 2: CCTTCATTCTACGCTGTCAATCGCCGTACCACCCGTGCTATAACCTTGACCCGTACGGGC
B31: NRC3_wobSeed112_DR4_T8A_o1 (dsDNA)
DNA 1: GCTAGCCAAGGTCAGATCGGGCCAGTATACGCTATAGCGATTGACAGCGTAGAATGAAGG
DNA 2: CCTTCATTCTACGCTGTCAATCGCTATAGCGTATACTGGCCCGATCTGACCTTGGCTAGC

PXR:RXRa, sequence (O75469 whole entry, chain 1 of 2): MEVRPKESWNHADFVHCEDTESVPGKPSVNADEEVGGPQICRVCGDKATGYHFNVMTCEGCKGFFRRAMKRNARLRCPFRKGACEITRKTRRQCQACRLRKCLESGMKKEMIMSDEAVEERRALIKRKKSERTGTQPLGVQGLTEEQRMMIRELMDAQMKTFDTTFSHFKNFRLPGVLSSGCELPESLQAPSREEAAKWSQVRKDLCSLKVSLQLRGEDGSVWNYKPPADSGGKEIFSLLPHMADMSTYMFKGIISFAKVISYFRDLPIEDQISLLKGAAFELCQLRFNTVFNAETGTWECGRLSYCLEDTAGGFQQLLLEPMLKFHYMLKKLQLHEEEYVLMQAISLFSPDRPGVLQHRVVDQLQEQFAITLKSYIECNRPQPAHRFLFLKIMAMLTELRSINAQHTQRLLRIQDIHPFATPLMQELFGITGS
PXR:RXRa, sequence (P19793 whole entry, chain 2 of 2): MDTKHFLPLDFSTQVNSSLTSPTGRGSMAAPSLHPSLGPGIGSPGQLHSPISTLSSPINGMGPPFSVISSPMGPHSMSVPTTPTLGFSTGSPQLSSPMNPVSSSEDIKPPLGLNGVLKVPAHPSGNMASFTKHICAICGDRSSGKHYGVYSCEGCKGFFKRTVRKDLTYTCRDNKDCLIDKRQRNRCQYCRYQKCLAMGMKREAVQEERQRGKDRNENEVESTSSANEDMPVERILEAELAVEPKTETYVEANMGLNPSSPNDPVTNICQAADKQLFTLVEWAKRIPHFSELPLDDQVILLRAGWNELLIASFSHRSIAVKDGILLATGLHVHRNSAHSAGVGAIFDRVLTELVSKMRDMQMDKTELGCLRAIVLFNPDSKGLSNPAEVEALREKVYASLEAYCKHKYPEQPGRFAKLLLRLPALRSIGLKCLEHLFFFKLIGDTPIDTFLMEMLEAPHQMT

This data set concerns the target PXR:RXRa (Homo sapiens, UniProt O75469;P19793 full;full). The data set can be described thus: no ligand; PBM; 270 nM : 90 nM RXRa; PBS pH 7.4, 2% milk, 0.02% Triton X-100, 1 mM DTT, BSA, 0.4 mg/ml salmon testes DNA. Particulars: tags: His kept;His cleaved; copies: 1;1; label: surface-attached array probe. An outline of the steps: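 The probes on custom Agilent 4×180K protein-binding microarrays were double-stranded, with 34-nt variable regions bearing direct-repeat seeds, single-nucleotide variants, half-site ablations and random human genomic background sequences. Incubation lasted 1 h with ligand-free nuclear receptor dimers in PBS pH 7.4, 2% milk, 0.02% Triton X-100, 1 mM DTT, 0.2 mg/mL BSA and 0.4 mg/ml salmon testes DNA. Antibodies against each partner (one per run) detected bound dimers, and fluorescence scans were regression-normalized. Binding z-scores take the random background probes as reference.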
Take B1: the binding signal was 3.17 PBM z-score against 500 random probes.
Take B2: the binding signal was 3.06 PBM z-score against 500 random probes.
Next, B3: 3.22 PBM z-score against 500 random probes; B4: 3.5 PBM z-score against 500 random probes.
Turning to B5, the binding signal was 3.29 PBM z-score against 500 random probes.
Next, B6: 3.59 PBM z-score against 500 random probes; B7: 3.34 PBM z-score against 500 random probes; B8: 3.57 PBM z-score against 500 random probes.
On to B9, for which the binding signal was 3.45 PBM z-score against 500 random probes.
Next, B10: 3.32 PBM z-score against 500 random probes.
The figure for B11 is 3.13 PBM z-score against 500 random probes.
Take B12: the binding signal is 3.08 PBM z-score against 500 random probes.
Next, B13: 3.23 PBM z-score against 500 random probes; B14: 3.54 PBM z-score against 500 random probes; B15: 3.38 PBM z-score against 500 random probes.
The figure for B16 is 3.18 PBM z-score against 500 random probes; for B17 it is 3.31 PBM z-score against 500 random probes; for B18 it is 3.16 PBM z-score against 500 random probes.
As to B19, the binding signal was 3.05 PBM z-score against 500 random probes.
In the case of B20, the binding signal was 3.07 PBM z-score against 500 random probes.
Next, B21: 3.4 PBM z-score against 500 random probes; B22: 3.35 PBM z-score against 500 random probes.
The figure for B23 is 3.11 PBM z-score against 500 random probes; for B24 it is 3.37 PBM z-score against 500 random probes.
The figure for B25 is 3.28 PBM z-score against 500 random probes.
On to B26, for which the binding signal is 3.26 PBM z-score against 500 random probes.
Regarding B27, the binding signal is 3.2 PBM z-score against 500 random probes.
The figure for B28 is 3.52 PBM z-score against 500 random probes; for B29 it is 3.55 PBM z-score against 500 random probes.
Take B30: the binding signal was 3.48 PBM z-score against 500 random probes.
Regarding B31, the binding signal was 3.44 PBM z-score against 500 random probes.
